We go through one substance from publication PMC8173049.

Test [1] deals with HAdV-C5 capsid (replication-defective, E1-deleted vector particle with a GFP expression cassette) (human adenovirus C5) (UniProt P04133). As to the kind of experiment: SPR; BIAcore 3000; HAdV particles amine-coupled to a CM5 chip (3,500-4,000 RU, diluted in acetate buffer pH 4); lactoferrin 6.25-200 nM injected at 30 µl/min, 180 s association, 600 s dissociation; HBS-EP buffer (10 mM HEPES, 150 mM NaCl, 3 mM EDTA, 0.005% polysorbate 20, pH 7.4); bivalent fitting model.

Test [2] concerns the target HAdV-B35 capsid (replication-defective, E1-deleted vector particle with a YFP expression cassette) (human adenovirus B35). Described as above.

Consider human lactoferrin (natural protein), for which the Kd in test [1] is 0.8 µM; in test [2] it was 54 µM.
